Holding throughout (assay): purified protein
Series [1] concerns CC(=O)Oc1ccccc1. The conditions noted are these: pH 8.0; 25.0 °C.
The test system of series [2] is CCCC(=O)Oc1ccc([N+](=O)[O-])cc1. The following applies: pH 8.0; 25.0 °C.
In series [3] the test system is CC(=O)Oc1ccc([N+](=O)[O-])cc1. The conditions noted are these: pH 8.0; 25.0 °C.
For series [4], the system named is O=C1CCc2ccccc2O1. The following applies: pH 7.4; 25.0 °C.

Take reTAPON1-LIKE (Trichoderma atroviride): the Km (as a rule, the concentration of substrate that gives half-maximal velocity) came to 890 ± 60 µM in series [1], 1580 ± 120 µM in series [2], 1120 ± 140 µM in series [3] and 730 ± 10 µM in series [4].
